The labels stand for the following.
B1: PR303191 (antibody, human IgG1, V domains shown)
VH: EVQLLESGGGLVQPGGSLRLSCAASGFIFGSYAMSWVRQAPGKGLEWVSGISGTGGNTYYADSVKGRFTISRDNSKNTLYLQMNSLRAEDTAVYFCERGITIHGVVIIPPDYRGQGTLVTVSS
notes: HCAb (heavy chain-only, human IgG1 Fc), no light chain
B2: PR303125 (antibody, human IgG1, V domains shown)
VH: EVQLLESGGGLVQPGGSLRLSCAASGFTFSSHAMSWVRQAPGKGLEWVSAISGSGDSTHYAASVKGRFTISRDNSKNTLYLQMNSLRAEDTAVYYCETLLRFLESLGNDGFKIWGQGTMVTVSS
notes: as for B1
B3: PR000374 (antibody, human IgG1, kappa, V domains shown)
VH: EVQLVESGGGLVQPGRSLRLSCTASGSDINDYPITWVRQAPGQGLEWIGFINSGGSTWYASWVKGRFTISRDDSKSIAYLQMNSLKTEDTAVYYCARGYSTYYRDFNIWGQGTLVTVSS
VL: DIQMTQSPSSLSASVGDRVTINCQASQSIDSNLAWFQQKPGQPPKLLIYRASNLASGVPDRFSGSGSGTDFTLTISSLEAEDVATYYCLGGVGAVSYRTSFGGGTKVEIKR
notes: positive control; also called Bench marker 1

What is called EC50 (read off the curve) is the concentration that produces a half-maximal response. For orientation: EC50 means the midpoint of the concentration-response curve. Low values mean higher potency in that assay, high ones lower potency in that assay.

In the first test the target is T1, cynomolgus ROR1 on CHO-K1-cynoROR1 cells (cynomolgus monkey, UniProt A0A2K5WTX7 30-937).
T1 construct: whole, on cells
The test is described as follows: flow cytometry on CHOK1-cynoROR1 cells, MFI (Mean) [bottom panel, letter not given]. How it is done: (§1) Binding of recombinant anti-ROR1 antibodies to human or cynomolgus ROR1-overexpressing cells was tested by flow cytometry. In this example, ROR1-expressing cell lines are HEK293T cell lines that had been transfected to express human ROR1 on the surface (HEK293T-hu ROR1, KYINNO BIOTECHNOLOGY CO., LTD, Catalog #KC-1018), CHO-K1 cell lines that had been transfected to express cynomolgus ROR1 (CHOK1-cyno ROR1), PANC-1 (ATCC, catalog: CRL-1469) or A549 cell lines (Shanghai Institute of Biochemistry and Cell Biology, Chinese Academy of Sciences).
(§2) In brief, anti-ROR1 antibodies were serially diluted in staining buffer (PBS containing 2% FBS). Antibody solution was incubated with 1×10⁵ cells at 4° C. for 1 hour. […] After 1-hour incubation at 4° C., cells were washed twice with staining buffer and subjected to flow cytometry. PR000374 (Bench marker 1) and non-relevant IgG isotype control (Crownbio) were used as positive and negative controls, respectively.
Regarding B1, the “EC50 (read off the curve)” value is around 0.03 µg/mL.
Turning to B2, the “EC50 (read off the curve)” value is around 0.2 µg/mL.
With B3, the 50% effective concentration (EC50 (read off the curve)) is around 0.3 µg/mL.

In another test the target is T2, Human ROR1-ECD-his (Acro Biosystems RO1-H522y) (human, UniProt Q01973 30-406).
T2 construct: extracellular domain; bought protein; also called hROR1-ECD-his; hu-ROR1-ECD-his
T2 sequence (Q01973 30-406): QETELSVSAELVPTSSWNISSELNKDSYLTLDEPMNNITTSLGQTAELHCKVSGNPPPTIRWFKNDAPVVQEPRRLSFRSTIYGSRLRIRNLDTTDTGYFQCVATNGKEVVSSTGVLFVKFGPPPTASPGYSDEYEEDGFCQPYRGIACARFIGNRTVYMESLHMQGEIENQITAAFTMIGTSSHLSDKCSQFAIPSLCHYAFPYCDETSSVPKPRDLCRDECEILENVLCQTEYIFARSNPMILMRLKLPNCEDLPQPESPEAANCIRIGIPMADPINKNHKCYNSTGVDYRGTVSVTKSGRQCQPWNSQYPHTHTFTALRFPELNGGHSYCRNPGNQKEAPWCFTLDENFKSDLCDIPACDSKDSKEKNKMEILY
The test is described as follows: BLI in-tandem competition; competitor: PR303125. The text has this: (§3) To determine if anti-ROR1 antibodies bind to human ROR1 on different or approximate binding epitopes, the ForteBio Octet® RED96e platform was used to perform epitope competition experiments on the anti-ROR1 antibodies. Human ROR1 protein (Acrobiosystems, #RO1-H522y) was biotinylated and then captured onto SA biosensors (ForteBio, #18-5020) to reach loading level of 0.3-0.4 nm. The in-tandem competition assay format was applied and it contains two association steps. Firstly, the antigen-loaded biosensors bind to each antibody (a.k.a, First antibody, 1st Ab) with a saturating concentration of 200 nM for 180 seconds to reach equilibrium and then secondly bind to the competing antibodies (a.k.a, Second antibody, 2nd Ab) of 200 nM for 180 seconds. The second binding signals were recorded as the 100% signal of each antibody when the first antibodies were replaced by kinetics buffer. All the binding data were analyzed using ForteBio Data Analysis 11.0 software. The inhibition rate is calculated by the following formula: […]
For the molecule B1, the “Inhibition (%)” value stood at 80%.
For B2, the “Inhibition (%)” value worked out at 104%.
The same measure, in the same setting: the result for B3 reads -45%.

The next test concerns the target T2, Human ROR1-ECD-his (Acro Biosystems …). The test is described as follows: BLI in-tandem competition; competitor: PR303191.
Excerpt: as §3
B1: the “Inhibition (%)” value turned out to be 80%.
Consider B2, for which the “Inhibition (%)” value stood at 109%.
In the case of B3, the “Inhibition (%)” value is -34%.

The target is the same in a further test. The test is described as follows: BLI in-tandem competition; competitor: PR303189.
Excerpt: as §3
For B1, the “Inhibition (%)” value was -99%.
On the same count and under the same terms, the result for B2 reads -24%; that for B3, -52%.

For another test the target is unchanged. The test is described as follows: BLI in-tandem competition; competitor: PR303199.
Excerpt: as §3
With B1, the “Inhibition (%)” value is -57%.
Turning to B2, the “Inhibition (%)” value is -48%.
Still for that read-out and setting: to B3 belongs -61%.

The target in a further test is T1, cynomolgus ROR1 on CHO-K1-cynoROR1 cells. Nature of the test: flow cytometry, CHO-K1-cynoROR1 cells. How it is done: as §2
On the technique in general: In flow cytometry, cells or beads pass a laser one at a time.
In the case of B1, the EC50 was determined as 0.03 µg/mL and the “MAX(MFI)” value was 9.24e+06 MFI.
As for B2, the response was half-maximal at 0.222 µg/mL (EC50) and the “MAX(MFI)” value was 8.27e+06 MFI.
The matching figures for B3: 0.314 µg/mL and 1.05e+07 MFI.

A further test deals with T3, human ROR1 on cells (HEK293T-hROR1, PANC-1, A549) (human, UniProt Q01973 30-937).
T3 construct: whole, on cells; one molecule for the three cell lines; also called huROR1; cell surface ROR1
T3 sequence (Q01973 30-937): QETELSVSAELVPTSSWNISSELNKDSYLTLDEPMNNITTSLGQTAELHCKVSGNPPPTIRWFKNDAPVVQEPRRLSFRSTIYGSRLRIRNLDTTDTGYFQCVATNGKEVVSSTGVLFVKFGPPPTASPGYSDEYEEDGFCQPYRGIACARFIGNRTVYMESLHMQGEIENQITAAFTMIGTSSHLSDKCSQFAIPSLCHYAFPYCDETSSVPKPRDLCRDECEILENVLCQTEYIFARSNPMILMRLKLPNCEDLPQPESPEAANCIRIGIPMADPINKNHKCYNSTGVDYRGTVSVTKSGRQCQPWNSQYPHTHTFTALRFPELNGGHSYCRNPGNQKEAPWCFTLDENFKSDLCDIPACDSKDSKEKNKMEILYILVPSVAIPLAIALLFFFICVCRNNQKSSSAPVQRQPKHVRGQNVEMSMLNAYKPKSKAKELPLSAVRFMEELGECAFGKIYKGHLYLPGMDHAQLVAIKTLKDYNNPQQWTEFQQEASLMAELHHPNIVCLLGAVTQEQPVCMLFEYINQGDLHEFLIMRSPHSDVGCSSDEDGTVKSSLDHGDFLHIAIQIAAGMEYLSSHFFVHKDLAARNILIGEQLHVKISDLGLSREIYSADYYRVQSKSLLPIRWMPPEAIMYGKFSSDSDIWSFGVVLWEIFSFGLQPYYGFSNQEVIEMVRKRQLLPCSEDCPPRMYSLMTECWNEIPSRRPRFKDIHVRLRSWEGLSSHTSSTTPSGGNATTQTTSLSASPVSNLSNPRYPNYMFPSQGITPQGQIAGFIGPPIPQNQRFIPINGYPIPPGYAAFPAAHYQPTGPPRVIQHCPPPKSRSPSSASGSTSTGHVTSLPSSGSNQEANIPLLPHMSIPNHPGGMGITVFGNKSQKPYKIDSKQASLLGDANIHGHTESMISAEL
Nature of the test: flow cytometry, HEK293T-hROR1 cells. How it is done:
as §2
On to B1, for which the EC50 was found to be 0.044 µg/mL and the “MAX(MFI)” value was 1.4e+07 MFI.
The matching figures for B2: 0.273 µg/mL and 1.5e+07 MFI.
The matching figures for B3: 0.506 µg/mL and 1.49e+07 MFI.

The target in the next test is T2, Human ROR1-ECD-his (Acro Biosystems …). Nature of the test: BLI in-tandem competition; competitor: PR000374.
Excerpt: as §3
As to B1, the “Inhibition (%)” value is -38%.
On the same count and under the same terms, to B2 belongs -24%; to B3, 109%.

The next test has the same target. The test is described as follows: BLI in-tandem competition; competitor: PR303147.
Excerpt: as §3
With B1, the “Inhibition (%)” value was -60%.
For the molecule B2, the “Inhibition (%)” value is -88%.
Still for that read-out and setting: to B3 belongs -72%.

Another test concerns the target T3, human ROR1 on cells (HEK293T-hROR1, …). The test is described as follows: flow cytometry on HEK293T-hROR1 cells, MFI (Mean). How it is done:
as §1, §2
As to B1, the “EC50 (read off the curve)” value was around 0.04 µg/mL.
With B2, the “EC50 (read off the curve)” value is around 0.3 µg/mL.
For the molecule B3, the “EC50 (read off the curve)” value is around 0.5 µg/mL.

For another test, the target named is T2, Human ROR1-ECD-his (Acro Biosystems …). Nature of the test: ELISA, plate coated with hu-ROR1-his at 1 µg/mL. On the procedure:
Binding of recombinant anti-ROR1 antibodies to hu-ROR1-ECD-his was tested by ELISA. In brief, 1 μg/mL hu-ROR1-ECD-his was added to the 96-well plate, 100 μL each well, incubated at 4° C. overnight, washing the plates with 1×PBST 3 times, 300 ul/well, blocking the plates with 2% BSA in 1×PBST, 200 ul/well at 37° C. for 1 hour, anti-ROR1 antibodies were serially diluted in staining buffer (PBS containing 2% BSA). Antibody solution was added to the plate and incubates at 37° C. for 1 hour, washing the plates with 1×PBST 3 times, 300 ul/well, adding secondary antibody 100 ul/well and incubate at 37° C. for 1 hour, washing the plates with 1×PBST 3 times, 300 ul/well and then add 100 ul/well TMB for about 5 min, stop the reaction by adding 100 ul/well 2M H₂SO₄, read the plates with Molecular device spectra max plus384 at 450 nm and 570 nm.
In general terms: In an ELISA, binding on a coated surface is turned into a signal by an enzyme label.
On to B1, for which the “EC50 (read off the curve)” value was around 0.0007 µg/mL.
Same read-out and setting: to B2 belongs around 0.002 µg/mL; to B3, around 0.0008 µg/mL.
